Results published in patent CN111620946A (JIANGSU DISEASE CONTROL AND PREVENTION CENTER JIANGSU …, dated 2020).

Legend:
[1] = molecular target: SARS-CoV-2 S蛋白 (spike) on live virus, 分离株 BetaCoV/JS03/human/2020 (SARS-CoV-2, UniProt P0DTC2 14-1273); experiment: cell-based or functional assay
[2] = molecular target: 重组SARS-CoV-2刺突蛋白胞外区 (extra cellular domain of spike protein) (SARS-CoV-2, UniProt P0DTC2 14-1213); experiment: SPR, Biacore 8K, S-ECD coupled to a CM5 chip, antibody 125nM~7.8nM in solution
[3] = molecular target: SARS-CoV-2 S蛋白 (spike) on live virus, 分离株 BetaCoV/JS03/human/2020 (SARS-CoV-2, UniProt P0DTC2 14-1273); experiment: cell-based or functional assay; remark: listed apart in the source

Row | Binder | IC50(ng/ml), 体外中和实验 (live virus, Vero E6, CPE) [1] [ng/mL] | Kd [2] [nM] | IC50(ng/ml), 体外中和实验 (live virus, Vero E6, CPE) [3] [ng/mL]
1 | FC11 (antibody, V domains shown) VH: EVQLLESGGGVVQPGRSLRLSCAASGFTFSYYGMHWVRQAPGTGLEWVAVISYDGSNEYYADSVKGRFTISRDNSKNTLYLQMNSLRAEDTAVYYCAKAMFLGDSSGLTGLDMDVWGQGTTVTVSS VL: DIELTQSPGTLSLSPGERATLSCRASQSVSSYLAWYQQKPGQAPRLLIYDASNRATGIPARFSGSGSGTDFTLTISSLEPEDFALYYCQQRGNWPPTFGGGTKLEIK | 818 | 0.5 | 
2 | FC05 (antibody, V domains shown) VH: VQLLEQSGAEVKKPGASVRVSCKVSGYTLPEVAMHWVRQAPGKGLEWMGGFDPEDGETIYAQKFQGRVTMTEDTSTDTAYMELSSLRSEDTAVYYCATTTPFSSSFWFDPWGQGTLVTVSS VL: QSVLTQAPSVSGAPGQKVTISCSGSSSNIGNNYVSWYQQLPGTAPKLLIYDNNKRPSGIPDRFSGSKSGTSATLGITGLQTGDEADYYCGTWDSSLSAVVFGGGTKLTVL |  |  | 142
3 | FC08 (antibody, V domains shown) VH: VQLLQQSGAEVKKPGSSVKVSCKASGGTFSSYAISWVRQAPGQGLEWMGGIIPILGIANYAQKFQGRVTITADKSTSTAYMELSSLRSEDTAVYYCVRERGYSGYGAAYYFDYWGQGTLVTVSS VL: QSVLTQPPSVSGAPGQRVTISCTGSSSNIGAGYDVHWYQQLPGTAPKLLIYGNSNRPSGVPDRFSGSKSGTSASLAITGLQAEDEADYYCQSYDSSLSGSVFGGGTKLTVL | 325 | 0.8 | 
